Consider 30 sequences from the nanobody polyreactivity screen of Harvey et al. (2022).

The data set in a line: yeast display, Sf9 membrane polyspecificity reagent, FACS + sequencing; frameworks hold sequencing errors. A digest of the protocol:
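In a synthetic yeast display library (Saccharomyces cerevisiae BJ5465), nanobody expression was induced with galactose for 36–48 hours. FACS gates were set low and high (top ~1%) using anti-HA fluorescence for expression and streptavidin fluorescence for binding of the Sf9 membrane reagent. Each polyreactivity label is drawn from the gate of origin.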
As for “QVQLVESGGGLVQAGGSLRLSCAASGSIFYRYAMGWYRQAPGKERELVAGISWTGGTYYADSVKGRFTISRDNAKNTVYLQMNSLKPEDTAVYYCAATIWIAYRGWYSDYNYWGQGTQVTVSS”, the “polyreactivity (PSR sort gate)” value is “low polyreactivity”.
Consider “QVQLVESGGGLVQAGGSLRLSCAASGSIFYRYAMGWYRQAPGKEWELVAAISYSGGSTYYADSVKGRFPISRDNAKNTVYVQMNSLKPEDTAVNYCATDYPPPISDYSRYYGYGYWGQGTQVTVSS”, for which the “polyreactivity (PSR sort gate)” value is on record as “low polyreactivity”.
Take “QVQLVESGGGLVQAGGSLRLSCAASGSIFYSNAMGWYRQAPGKEREFVAAISAGGGSTYYADSVKGRFTISRDNAKNTVYLQMNSLKPEDTAVYYCAAQPYKIIYPYDYWGQGTQVTVSS”: the “polyreactivity (PSR sort gate)” value is reported as “low polyreactivity”.
The result for “QVQLVESGGGLVQAGGSLRLSCAASGSIFYSNAMGWYRQAPGKERELVAAIRTSAGSTYYADSVKGRFTISRDYAKNTVYLQMTSLKPEDTAVYYCAAVTTYYYYDVTDYAYEYYYWGQGTQVTVSS” reads “low polyreactivity”; that for “QVQLVESGGGLVQAGGSLRLSCAASGSIFYSNAMGWYRQAPGKERELVAAISDGGTSTYYADSVKGRFTISRDNAKNTVYFQMNSLKPEDTAVYYCAAESTLQDWNWYKYYYWGQGTQVTVSS”, “low polyreactivity”.
The result for “QVQLVESGGGLVQAGGSLRLSCAASGSIFYSNAMGWYRQAPGKERELVAAISDGGTSTYYADSVKGRFTISRDNAKNTVYLQMNSLKPEDTAVYYCAAESTLQDWNWYKYYYWGQGTQVTVSS” reads “low polyreactivity”.
On to “QVQLVESGGGLVQAGGSLRLSCAASGSIFYSNVMGWYRQAPGKERELVAAIRYSGVGTYYADSVKGRFTISRDNAKNTVYLLMNSLKPEDTAVYYCNAVTKVGYLRRRDYWGQGTKVTVSS”, for which the “polyreactivity (PSR sort gate)” value is “low polyreactivity”.
The result for “QVQLVESGGGLVQAGGSLRLSCAASGSIFYSYAMGWYRQAPGKDRELVARITSSTGRTYYADSVKGRFTISRDNAKNTVYLQMNSLKPEDTAVYYCAARSASRSMDYWGQGTQVTVSS” reads “high polyreactivity”.
Then “QVQLVESGGGLVQAGGSLRLSCAASGSIFYSYAMGWYRQAPGKERELVAAISWDASTYYADSVKGRFTISRDNAKNTVYLQMNSLKPEDTAVYFCNADIPYYFVYDAYDYWGQGTQVTVSS”, with “low polyreactivity”; and “QVQLVESGGGLVQAGGSLRLSCAASGSIFYSYAMGWYRQAPGKERELVAAISYSSGSTYYADSVKGRFTISRDNAKNTVYLQMNSLKPEDTAVYDCAAEGNGWQVDVTEVGEYDSWGQGTQVTVSS”, with “high polyreactivity”.
Turning to “QVQLVESGGGLVQAGGSLRLSCAASGSIFYSYAMGWYRQAPGKERELVADITITGSTYYADSVKGRFTISRDNAKNTVYLQMNSLKPEDTAVYYCDAVLAPGGYDYWGQGTQVTVSS”, the “polyreactivity (PSR sort gate)” value is given as “low polyreactivity”.
Then “QVQLVESGGGLVQAGGSLRLSCAASGSIFYSYAMGWYRQAPGKERELVAVITRGGSTNYADSVKGRFTISRDNAKNTVYLQMNSLKPEDTAVYYCNKDRYGKVFRYPPYYRSSPYDYWGQGTQVTVSS”, with “high polyreactivity”.
Regarding “QVQLVESGGGLVQAGGSLRLSCAASGSIFYTNAMGWDRQAPGKERELVATITSSTGSTNYADSVKGRFTISRDNAKNTVYLQMNSLKPEDTAVYYCAKRDGYWVYYQMDYWGQGTQVTVSS”, the “polyreactivity (PSR sort gate)” value was “low polyreactivity”.
Turning to “QVQLVESGGGLVQAGGSLRLSCAASGSIFYTNVRGWYRQAPGKAREFVAAITGGGGSTYYADSVKGRFTISRDNAKNTVYLQMNSLKPEDTAVYYCATKAKPRSGYNYWGQGTQVTVSS”, the “polyreactivity (PSR sort gate)” value is “low polyreactivity”.
In the case of “QVQLVESGGGLVQAGGSLRLSCAASGSIFYTYAKGWYRQAPGKQRELVAGISWSGSDTYYADSVKGRFTISRDNAKNTVYLQMNSLKPEDTAVYYCNAETSTRKNFGYDYWGQGTQVTVSS”, the “polyreactivity (PSR sort gate)” value was “low polyreactivity”.
As to “QVQLVESGGGLVQAGGSLRLSCAASGSIFYTYAMGWSRQAPGKEREFVAAITSSGGSTYYADSVKGRFTISRDNAKNTVYLQMNSLKPEDTAVYYCAADSGSTSEYEYWGQGTQVTVSS”, the “polyreactivity (PSR sort gate)” value is given as “low polyreactivity”.
As for “QVQLVESGGGLVQAGGSLRLSCAASGSIFYTYAMGWYRQAPGKEREFVASITYRGSNTYYADSVKGRFTISRDNAKNTVYLQMNSLKPEDTAVYYCAADSFYYRPEYDYWGQGTKVTVSS”, the “polyreactivity (PSR sort gate)” value is given as “low polyreactivity”.
As to “QVQLVESGGGLVQAGGSLRLSCAASGSIFYTYAMGWYRQAPGKERELVATIRVSGVSTYADSVKGRFTISRDNAKNTVYLQMNSLKPEDTAVYYCNKVSFYEPIYWQQGYVLLDYWGQGTQVTVSS”, the “polyreactivity (PSR sort gate)” value is reported as “low polyreactivity”.
The result for “QVQLVESGGGLVQAGGSLRLSCAASGSIFYVNTMGWYRQAPGKERELVAAISDSSGGTYYADSVKGRFTISRDNAKNTVYLQMNSLKPEDPAVYYCARDSTSHYDSGPYSSPFDYWGQGTQVTVSS” reads “low polyreactivity”; that for “QVQLVESGGGLVQAGGSLRLSCAASGSIFYVYAMGGYRQAPGKERELVAAISKSGGSTYYADSVKGRFTISRDNAKNTVYLQMNRLKPEDTAVYYCAAYFSYGSIIEDYWGQGTQVTVSS”, “low polyreactivity”.
Then “QVQLVESGGGLVQAGGSLRLSCAASGSIFYVYAMGWYRQAPGKERELDAGITTSGGSTYYADSVKGRFTISRDNAKNTVYLQMKSLKPEDTAVYYCATRNAFTAGSYNVYYGEYYWGQGTQVTVSS”, with “low polyreactivity”; and “QVQLVESGGGLVQAGGSLRLSCAASGSIFYVYAMGWYRQAPGKERELVAAISFSGDTTYYADSVKGRFTISRDNAKNTVYLQMNSLKQEDTAVYYCAAEYYYTWVYQYWEMDYWGQGTQVTVSS”, with “low polyreactivity”.
Regarding “QVQLVESGGGLVQAGGSLRLSCAASGSIFYVYAMGWYRQAPGKERELVAAITNYADSVKGRFTISRDNAKNTVYLQMNSLKPEDTAVYYCAADWWRVEMDYWGQGTQVTVSS”, the “polyreactivity (PSR sort gate)” value is recorded as “low polyreactivity”.
As for “QVQLVESGGGLVQAGGSLRLSCAASGSIFYVYAMGWYRQAPGKERELVASISWGDSSTYYADSVKGRFTISRDNAKNTVYLQMNSLKPDDTAVYYCAADEYRQYALYDYWGQGTQVTVSS”, the “polyreactivity (PSR sort gate)” value is recorded as “low polyreactivity”.
Then “QVQLVESGGGLVQAGGSLRLSCAASGSIFYVYAMGWYRQAPGKERELVATISSSAGSTYYADSVKGRFTISRDNAKNTVYLQMNSLKPEDTAVYYCAVRQIYQTSDHRLQYDYWGQGTQVTVSS”, with “low polyreactivity”; and “QVQLVESGGGLVQAGGSLRLSCAASGSIFYVYAMGWYRQAPGNERELVADITTRDGDTYYADSVKGRFTISRDNAKNTVYFQMNSLKPEDTAVYYCAADLNAYPQRAYDYWGQGTQVTVSS”, with “low polyreactivity”; and “QVQLVESGGGLVQAGGSLRLSCAASGSIFYWYAMGWYRQAPGKERELVAAIDISDDTYYADSVKGRFTISRDNAKNTVYLQMNSLKPEDTAVYYCAARTTRWFYEYDWGQGTQVTVSS”, with “high polyreactivity”.
The result for “QVQLVESGGGLVQAGGSLRLSCAASGSIFYYNAMGWYRQAPGKERELVAAISFRASSTYYADSVKGRFTISRDNAKNTVYLQMNSLKPEDTAVYYCASSHWHYIPRHHPYGDDYCGQGTQVTVSS” reads “low polyreactivity”.
The result for “QVQLVESGGGLVQAGGSLRLSCAASGSIFYYNAMGWYRQAPGKERELVAAISWSGGSTYYADSVKGRFTISRDKAKNTVYLQMNSLKPEDTAVYYCNAVGWYTYFYGSRKYNSWGQGTQVTVSS” reads “low polyreactivity”; that for “QVQLVESGGGLVQAGGSLRLSCAASGSIFYYNAMGWYRQEPGKERELVATITSAVSTNYADSVKGRFTISRDNAKNTVYLQMNSLKPQDTAVYYCAADDYQVQYDYWGQGTQVTVSS”, “low polyreactivity”.
